Measured values from US12612459B2, “Methods of identifying agents that block MCD28 cleavage by MMPS” (BIOND BIOLOGICS LTD., priority 2019, dated 2026).
Where no end group is shown, it is not given here.

Columns and labels:
MMP-2 [1] = target: T1, MMP-2 (Homo sapiens, UniProt P08253); test: Fluorogenic assay: cleavage of quenched fluorogenic human CD28 stalk region peptide by MMP-2; type: biochemical; settings: increasing dose of inhibitor; FIG. 1C
T1 construct: purchased AnaSpec and R&D Systems AS-72005 / 902-MP
T1 sequence (P08253 110-660): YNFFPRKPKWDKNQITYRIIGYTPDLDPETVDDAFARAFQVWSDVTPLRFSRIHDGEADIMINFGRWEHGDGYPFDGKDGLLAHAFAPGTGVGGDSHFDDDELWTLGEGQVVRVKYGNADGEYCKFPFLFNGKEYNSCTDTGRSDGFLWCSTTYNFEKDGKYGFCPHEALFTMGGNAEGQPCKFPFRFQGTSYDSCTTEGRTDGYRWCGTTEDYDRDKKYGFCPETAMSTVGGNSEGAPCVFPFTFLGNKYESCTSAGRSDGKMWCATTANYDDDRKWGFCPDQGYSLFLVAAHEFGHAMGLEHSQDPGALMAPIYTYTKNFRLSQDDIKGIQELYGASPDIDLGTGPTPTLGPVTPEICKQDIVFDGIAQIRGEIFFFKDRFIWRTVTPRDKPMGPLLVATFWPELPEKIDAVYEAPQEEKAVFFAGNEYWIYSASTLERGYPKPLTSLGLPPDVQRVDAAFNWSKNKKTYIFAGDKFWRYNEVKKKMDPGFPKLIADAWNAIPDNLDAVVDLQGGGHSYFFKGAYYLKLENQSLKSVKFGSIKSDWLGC
Description: (§1) FIGS. 1A-1E. (1A-1E) Line graphs of fluorescence from quenched fluorogenic peptides of the human CD28 stalk region incubated with (1A) various recombinant human sheddases, (1B) varying concentrations of rhMMP-2, (1C) MMP-2 and various concentrations of the MMP-2 specific inhibitor ARP-100, (1D) varying concentrations of rhMMP-13, or (1E) MMP-13 and broad MMP inhibitor TMI-1.
(§2) Matrix Metalloproteinases and ADAM's—Commercial recombinant human metalloproteinases MMP-1 (Cat. No. AS-55575), MMP-9 (Cat. No. AS-55576), MMP-10 (Cat. No. AS-72067), MMP-12 (Cat. No. AS-55525) and MMP-13 (Cat. No. AS-72257) are from AnaSpec. […]
(§3) Fluorogenic Assay—The assay was performed with indicated MMP's (10 or 30 ng) in 50 mM Tris, 10 mM CaCl2), 150 mM NaCl, 0.05% Brij-35, pH 7.5 or ADAM10/ADAM17 (5 μg/mL) in 25 mM Tris, 2.5 mM ZnCl2 and 0.005% Brij-35, pH 9. Cleavage of the fluorogenic substrate (10 μM) was measured at Ex340/Em490 nm using Biotek Synergy H1 spectrofluorometer.
(§4) It has been hypothesized that ADAM-10 and ADAM-17 may play a role in this shedding. […] When intact, the fluorochrome on the peptide is quenched and no fluorescence is measured. Cleavage of the peptide allows the fluorochrome to dissociate from the quencher and fluorescence is measurable by a dedicated reader. […] The peptide alone without any sheddase added was used as a control to normalize the readings. […]

MMP-13 [2] = target: T2, MMP-13 (Homo sapiens, UniProt P45452); test: Fluorogenic assay: cleavage of quenched fluorogenic human CD28 stalk region peptide by MMP-13; type: biochemical; settings: increasing dose of inhibitor; FIG. 1E
Description: as §1, §2, §3, §4

[3] = test system: chronically stimulated human PBMCs; settings: previously shown in WO2019/175885; dose dependent; cited from earlier work
MMP-2 [4] = target: T1, MMP-2; test: In-vitro cleavage assay of c-Myc tagged, biotinylated dimeric CD28 stalk region peptide by rhMMP-2 (ELISA detection of intact peptide); type: biochemical; settings: 25 ng and 50 ng MMP-2, 5-hour incubation; FIG. 4C
MMP-13 [5] = target: T2, MMP-13; test: In-vitro cleavage assay of c-Myc tagged, biotinylated dimeric CD28 stalk region peptide by rhMMP-13 (ELISA detection of intact peptide); type: biochemical; settings: 25 ng and 50 ng MMP-13, 5-hour incubation; FIG. 4D
human CD28 stalk region = target: T3, human CD28 stalk region (Homo sapiens, UniProt P10747); test: Binding to human CD28 stalk region dimeric peptide by ELISA; settings: for binding to human CD28 stalk region sequence: ELISA, serial dilution of VHH clones, FIG. 5; for specific binding to MMP cleavage site of human CD28: WT versus L145K stalk region dimeric peptides, VHH 0.2-5 μg/mL, FIG. 7
T3 construct: human CD28 stalk region (His134-Pro152)

CC(C)ON(CC(=O)NO)S(=O)(=O)c1ccc(-c2ccccc2)cc1 [ARP-100]
cleavage of the CD28 stalk fluorogenic peptide by MMP-2 (MMP-2 [1]): cleavage decreased in a dose dependent manner

CC#CCOc1ccc(S(=O)(=O)N2CCSC(C)(C)[C@@H]2C(=O)NO)cc1 [TMI-1]
cleavage of the CD28 stalk fluorogenic peptide by MMP-13 (MMP-13 [2]): cleavage decreased in a dose dependent manner

TAPI
levels of sCD28 produced by chronically stimulated human PBMCs [3]: diminish levels of sCD28

mutated peptide: cMyc tagged, biotinylated dimeric CD28 stalk region peptide with L145K, EQKLISEEDLGGGGHVKGKHLCPSPKFPGPSKP (SEQ ID NO: 19) (EQKLISEEDLGGGGHVKGKHLCPSPKFPGPSKP-biotin; also: dimeric peptide) [reference compound]
peptide cleaved by MMP-2 (MMP-2 [4]): < 5%
peptide cleaved by MMP-13 (MMP-13 [5]): < 5%

B1: clone 4A1: llama-derived VHH single domain antibody binding the human CD28 stalk region, SEQ ID NO: 31, C-terminal His-tag (protein)
VHH: QVQLVESGGGLVQAGGSLRLSCAASGSIFSINAMGWYRQAPGKQRERVAAITSGGSTNYADSVKGRFTISRDNAKNTVYLQMNNLEPRDAGVYYCVVDLYGEDYWIWGQGTQVTVSSAAAHHHHHH
modifications: C-terminal His-tag
binding to human CD28 stalk region sequence (human CD28 stalk region): specifically bind the stalk region of human CD28
specific binding to MMP cleavage site of human CD28 (human CD28 stalk region): bind specifically to MMP cleavage site of human CD28

B2: clone 4A4: llama-derived VHH single domain antibody binding the human CD28 stalk region, SEQ ID NO: 30, C-terminal His-tag (protein)
VHH: EVQLVESGGGLVQAGGSLRLSCAASGSLFSINAMAWYRQAPGKQRELVAAITSSGSTNYANSVKGRFTVSRDNAKNTMYLQMNSLKPEDTAVYYCVVDEYGSDYWIWGQGTQVTVSSAAAHHHHHH
modifications: C-terminal His-tag
binding to human CD28 stalk region sequence (human CD28 stalk region): specifically bind the stalk region of human CD28
specific binding to MMP cleavage site of human CD28 (human CD28 stalk region): bind specifically to MMP cleavage site of human CD28
